This is an account of results in patent publication EP4696329A1 (BioRay Pharmaceutical Co., Ltd., dated 2024).

Substitutions are numbered along the chain they refer to. Numbers in names are those of the source. Where two headings read alike, the source gives them in different places.

The target in test [1] is T1, human ROR1 protein (recombinant ROR1 antigen, Kactus Biosystems) (human, UniProt Q01973 30-406, limits assumed). Kind of test: BLI (Octet R8), antibody captured on AHC sensor, ROR1 antigen as analyte. In general terms: In BLI a coated tip is dipped into the sample, and binding shifts an interference pattern.
The target of test [2] is T2, human ROR2 protein (hROR2, Kactus Biosystems, Cat. No. ROR-HM402) (human, UniProt Q01974 34-403, limits assumed). As to the kind of experiment: ELISA, plate coated with hROR2. In general terms: An ELISA detects its analyte on a solid surface through an enzyme-linked reagent.
The target in test [3] is T3, human ROR1 expressed on cells (MDA-MB-231, Jeko-1, PA-1, HCC1187) (human, UniProt Q01973 30-937).
T3 construct: also called hROR1
Kind of test: flow cytometry on Jeko-1 cells. For orientation: Flow cytometry measures light scatter and fluorescence of single cells or particles in a stream.

Test [4] concerns the target T3, human ROR1 expressed on cells …. Kind of test: flow cytometry on PA-1 cells.
Test [5] addresses T1, human ROR1 protein (recombinant ROR1 …). Kind of test: BLI (Octet R8).
Test [6] deals with T3, human ROR1 expressed on cells …. As to the kind of experiment: flow cytometry on MDA-MB-231 cells.
For test [7], the target named is T1, human ROR1 protein (recombinant ROR1 …). As to the kind of experiment: binding to ROR1 (column 'Binding to ROR1'; method not described).
For test [8] the target is unchanged. Kind of test: BLI (Octet R8), antibody captured on AHC sensor, ROR1 antigen as analyte. This is another data set of the same source.
Test [9] has as its target T3, human ROR1 expressed on cells …. Kind of test: flow cytometry on MDA-MB-231 cells. The source holds these as a separate data set.
Test [10] concerns the target T2, human ROR2 protein (hROR2, Kactus …). Kind of test: ELISA, plate coated with hROR2. This is another data set of the same source.
The target of test [11] is T1, human ROR1 protein (recombinant ROR1 …). As to the kind of experiment: BLI (Octet R8), antibody captured on AHC sensor, ROR1 antigen as analyte. The source holds these as a separate data set.
For test [12], the target named is T3, human ROR1 expressed on cells …. As to the kind of experiment: flow cytometry on Jeko-1 cells. This is another data set of the same source.
Test [13] has as its target T1, human ROR1 protein (recombinant ROR1 …). Kind of test: binding to ROR1 (column 'Binding to ROR1'; method not described). The source holds these as a separate data set.
Test [14] concerns the target T3, human ROR1 expressed on cells …. Kind of test: flow cytometry on MDA-MB-231 cells. The source holds these as a separate data set.
For test [15] the target is unchanged. Kind of test: flow cytometry on MDA-MB-231 cells. This is another data set of the same source.
Test [16] has as its target T1, human ROR1 protein (recombinant ROR1 …). As to the kind of experiment: BLI (Octet R8), antibody captured on AHC sensor, ROR1 antigen as analyte. The source holds these as a separate data set.
The target in test [17] is T2, human ROR2 protein (hROR2, Kactus …). Kind of test: ELISA, plate coated with hROR2. This is another data set of the same source.
Test [18] shares this target. As to the kind of experiment: ELISA, plate coated with hROR2. The source holds these as a separate data set.

T1 sequence (Q01973 30-406 limits assumed): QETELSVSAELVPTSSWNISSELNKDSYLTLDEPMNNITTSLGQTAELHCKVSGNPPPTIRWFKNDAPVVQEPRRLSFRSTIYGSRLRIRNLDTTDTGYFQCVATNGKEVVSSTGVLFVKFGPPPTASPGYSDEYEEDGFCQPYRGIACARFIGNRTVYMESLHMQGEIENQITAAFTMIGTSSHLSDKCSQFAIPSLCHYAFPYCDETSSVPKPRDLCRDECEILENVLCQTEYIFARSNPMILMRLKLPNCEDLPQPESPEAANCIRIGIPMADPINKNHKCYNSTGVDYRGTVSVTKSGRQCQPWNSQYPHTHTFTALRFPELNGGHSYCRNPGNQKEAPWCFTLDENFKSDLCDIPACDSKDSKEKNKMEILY
T2 sequence (Q01974 34-403 limits assumed): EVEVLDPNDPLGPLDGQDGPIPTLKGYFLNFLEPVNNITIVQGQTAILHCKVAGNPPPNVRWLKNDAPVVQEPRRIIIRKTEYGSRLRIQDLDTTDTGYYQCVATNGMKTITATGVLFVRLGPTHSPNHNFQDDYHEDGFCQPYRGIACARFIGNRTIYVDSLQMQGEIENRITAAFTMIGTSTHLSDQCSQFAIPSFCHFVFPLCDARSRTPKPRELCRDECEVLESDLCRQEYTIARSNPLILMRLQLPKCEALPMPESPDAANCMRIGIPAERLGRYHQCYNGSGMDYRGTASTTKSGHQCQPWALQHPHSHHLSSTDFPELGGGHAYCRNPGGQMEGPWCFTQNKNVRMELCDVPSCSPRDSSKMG
T3 sequence (Q01973 30-937 limits assumed): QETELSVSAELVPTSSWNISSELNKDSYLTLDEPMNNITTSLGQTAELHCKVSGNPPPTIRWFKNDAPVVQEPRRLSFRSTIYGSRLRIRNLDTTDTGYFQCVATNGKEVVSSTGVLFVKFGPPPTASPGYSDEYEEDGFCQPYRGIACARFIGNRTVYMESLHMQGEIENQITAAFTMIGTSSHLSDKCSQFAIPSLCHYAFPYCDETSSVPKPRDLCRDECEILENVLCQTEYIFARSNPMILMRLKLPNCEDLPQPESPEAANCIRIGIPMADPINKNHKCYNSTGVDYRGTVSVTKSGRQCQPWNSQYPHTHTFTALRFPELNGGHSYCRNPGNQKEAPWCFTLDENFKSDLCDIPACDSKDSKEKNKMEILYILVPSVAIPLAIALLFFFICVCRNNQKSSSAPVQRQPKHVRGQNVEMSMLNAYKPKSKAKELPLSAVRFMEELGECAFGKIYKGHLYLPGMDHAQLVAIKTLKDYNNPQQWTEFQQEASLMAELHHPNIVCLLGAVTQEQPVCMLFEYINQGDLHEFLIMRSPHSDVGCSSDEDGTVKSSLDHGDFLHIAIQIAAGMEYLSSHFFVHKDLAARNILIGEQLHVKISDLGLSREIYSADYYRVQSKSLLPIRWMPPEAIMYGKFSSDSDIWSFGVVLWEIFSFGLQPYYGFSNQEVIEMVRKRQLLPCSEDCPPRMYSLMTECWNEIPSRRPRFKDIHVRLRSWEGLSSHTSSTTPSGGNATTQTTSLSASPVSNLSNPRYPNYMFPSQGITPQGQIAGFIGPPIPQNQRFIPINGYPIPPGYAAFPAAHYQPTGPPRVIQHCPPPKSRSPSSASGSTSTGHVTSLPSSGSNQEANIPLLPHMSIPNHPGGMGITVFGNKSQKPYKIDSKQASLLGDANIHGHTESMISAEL

B1: AM3-ZH3 (antibody, human IgG1, kappa, V domains shown)
VH: EVQLVESGGGLVQPGGSLRLSCAASGFTFSSYPMSWVRQAPGKGLEWVSSISTGASAYFPDSVKGRFTISRDNAKNSLYLQMNSLRAEDTAVYYCARITTSTWYMDVWGQGTTVTVSS
VL: DIQMTQSPSAMSASVGDRVTITCKASQDIYSYLSWFQQKPGKVPKTLIYRANRLVRGVPSRFSGSGSGQEYTLTISSLQPEDMATYYCLQYDEFPYTFGQGTKLEIKR
notes: human IgG1 / kappa
As a reminder, the Kd is the equilibrium constant for the complex coming apart. The term EC50 denotes the midpoint of the concentration-response curve. B1: in test [1], the Kd amounted to 5 nM. In addition, the binding result in test [2] is reported as “no binding (tested: starting from 333.33 nM)”. In addition, the EC50 in [3] turned out to be 0.031 nM; in [4] it was 0.33 nM; in [6], 0.011 µg/mL; in test [7], 0.0123 µg/mL. For the same molecule, the MFI fold in test [3] was 2.8 fold; in test [4] it was 2.5 fold. Besides, the “fold affinity against H10-hVH4-hVL4” value in test [5] came out at 9 fold.

B2: chimeric antibody ch-D10 (antibody, human IgG1, kappa, V domains shown)
VH: QVQLKESGPGLVAPSQTLSITCTVSGFSLTSYGVHWVRQPPGKGLEWLGVIWAGGFTNYNSALKSRLSISKDNSKSQVLLKMTSLQTDDTAMYYCARRGSSYSMDYWGQGTSVTVSS
VL: EIVLSQSPAITAASLGQKVTITCSASSNVSYIHWYQQRSGTSPRPWIYEISKLASGVPVRFSGSGSGTSYSLTISSMEAEDAAIYYCQQWNYPLITFGSGTKLEIQR
notes: VH/VL of murine D10 on human IgG1 / kappa constant regions
Regarding B2, in test [8], the Kd came to 26.6 nM. This molecule also returned a concentration giving a half-maximal response (EC50) in [9] of 0.0634 µg/mL. Besides, in [10], the binding result is “no binding (tested: starting from 333.33 nM)”.

B3: YR-8 (antibody, human IgG1, kappa, V domains shown)
VH: QVQLQESGPGLVKPSETLSLTCTVSGFSLTRYGVHWIRQPPGKGLEWLGVIWAGGFTNYNSDLKSRLTISKDNSKNQVSLKLSSVTAADTAVYYCARRGDSYSMKYWGQGTLVTVSS
VL: EIVLTQSPATLSLSPGERATLSCSASSQVSYIHWYQQKPGQAPRPWIYETSKLASGIPARFSGSGSGTDYTLTISSLEPEDFAVYYCQQWNYPLITFGQGTKLEIKR
B3: the Kd in test [11] is 9.82 nM; in test [16] it was 18 nM. The EC50 in test [12] was determined as 0.005 µg/mL; in [13] it was 0.01 µg/mL; in test [14], 0.03 µg/mL; in [15], 0.02 µg/mL. Moreover, in test [17], the binding result is “no binding (tested: starting from 333.33 nM)”.

B4: YR-11 (antibody, human IgG1, kappa, V domains shown)
VH: B3 VH with L48I, D62A, L67V, D100N, S101E, K105S
VL: B3 VL
Consider B4, for which the Kd in test [11] stood at 7.63 nM. Further, the EC50 in [12] is 0.007 µg/mL; in [15] it was 0.02 µg/mL. In addition, in [17], the binding result is recorded as “binds”.

B5: YR-8-NT (antibody, human IgG1, kappa, V domains shown)
VH: B3 VH with S61T
VL: B3 VL
notes: YR-8 with S61T (Kabat) in the heavy chain
Turning to B5, in test [16], the dissociation constant (Kd) was 16 nM. Moreover, in test [18], the binding result was “binds”.

B6: YR-10 (antibody, human IgG1, kappa, V domains shown)
VH: B3 VH with L48I, D62T, L67V, D100N, S101Q
VL: B3 VL with T96S
For B6, the Kd in test [11] turned out to be 11.3 nM. Also, the results for the EC50 in test [12] and in test [15] were 0.01 µg/mL and 0.06 µg/mL, respectively. In addition, in [17], the binding result is listed as “binds”.

B7: YR-8-NA (antibody, human IgG1, kappa, V domains shown)
VH: B3 VH with S61A
VL: B3 VL
notes: YR-8 with S61A (Kabat) in the heavy chain
B7: the Kd in [16] was 14 nM. Moreover, the binding result in test [18] was “binds”.

B8: YR-8-NL (antibody, human IgG1, kappa, V domains shown)
VH: B3 VH with S61L
VL: B3 VL
notes: YR-8 with S61L (Kabat) in the heavy chain
For the molecule B8, in test [16], the Kd stood at 16 nM. In addition, the binding result in [18] was “binds”.

B9: YR-8-NI (antibody, human IgG1, kappa, V domains shown)
VH: B3 VH with S61I
VL: B3 VL
notes: YR-8 with S61I (Kabat) in the heavy chain
In the case of B9, the Kd in test [16] was 14 nM. Besides, the binding result in test [18] was “binds”.

B10: YR-8-ES (antibody, human IgG1, kappa, V domains shown)
VH: B3 VH with N60E
VL: B3 VL
notes: YR-8 with N60E (Kabat) in the heavy chain; human IgG1 / kappa
As to B10, the EC50 was determined as 0.01 µg/mL in test [13], 0.15 nM in [3], 0.05 µg/mL in test [14] and 0.25 nM in test [4]. For the same molecule, the results for the MFI fold in [3] and in [4] were 3.6 fold and 2.6 fold, respectively. Also, the Kd in test [16] was determined as 19 nM. Also, the binding result in test [18] was “no binding (tested: starting from 333.33 nM)”.

B11: YR-21 (antibody, human IgG1, kappa, V domains shown)
VH: B3 VH with D62G, S101Q, K105G
VL: B3 VL
Take B11: the Kd in test [11] worked out at 6.21 nM. Also, in [17], the binding result is listed as “binds”.

B12: YR-4 (antibody, human IgG1, kappa, V domains shown)
VH: B3 VH with L48I, D62S, L67V, S101G, K105Q
VL: B3 VL with T50I
For B12, the Kd in test [11] amounted to 10 nM. In addition, the binding result in test [17] is reported as “binds”.

B13: humanized antibody BRHu-3 (antibody, human IgG1, kappa, V domains shown)
VH: B3 VH with R31S, D62A, D100S, K105D
VL: B3 VL with Q28N, T50I
notes: humanized D10, human IgG1 / kappa
Take B13: the Kd amounted to 63.6 nM in [11] and 32.3 nM in [8]. The results for the EC50 in test [9], in [12] and in test [15] were 0.0818 µg/mL, 0.03 µg/mL and 0.09 µg/mL, respectively. Moreover, the binding result in test [10] was “no binding (tested: starting from 333.33 nM)”.

B14: YR-8-NV (antibody, human IgG1, kappa, V domains shown)
VH: B3 VH with S61V
VL: B3 VL
notes: YR-8 with S61V (Kabat) in the heavy chain
With B14, in test [16], the Kd came to 16 nM. Further, the binding result in [18] is recorded as “binds”.
